Experimental data published in patent US20100322946A1 (Genentech, published 2010).
Where a chain is given by its changes, count along the chain named. Where “and” joins values, the source holds several entries; their conditions need not be identical. Equal values may be shown once. Read-outs that look alike come from different tables or passages of the source.

What was measured:
human VEGF109 [1] = molecular target: T1, human VEGF109 (human, UniProt P15692 214-315, limits assumed); assay: BIAcore SPR
T1 construct: also called hVEGF109
T1 sequence (looked up): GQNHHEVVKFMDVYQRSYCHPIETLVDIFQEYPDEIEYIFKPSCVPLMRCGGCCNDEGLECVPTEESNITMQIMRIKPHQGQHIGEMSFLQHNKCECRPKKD

[2] = molecular target: T2, murine VEGF (form not stated) (mouse, UniProt Q00731-2 27-190); assay: BIAcore SPR, mVEGF108
T2 construct: also called mVEGF
T2 sequence (looked up): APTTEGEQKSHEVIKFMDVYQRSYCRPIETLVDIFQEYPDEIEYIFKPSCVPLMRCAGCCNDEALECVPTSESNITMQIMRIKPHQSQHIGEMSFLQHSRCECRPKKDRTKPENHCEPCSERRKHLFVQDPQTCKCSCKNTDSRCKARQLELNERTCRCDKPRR

[3] = molecular target: T3, human VEGF (form not stated) (human, UniProt P15692-4 27-191); assay: competitive phage ELISA
T3 construct: also called hVEGF; hVEGF-A

[4] = molecular target: T3, human VEGF (form not stated); assay: competitive phage ELISA; remark: listed apart in the source
[5] = molecular target: T4, HER2 extracellular domain (human, UniProt P04626 23-652); assay: BIAcore SPR
T4 construct: extracellular domain; also called HER2-ECD; Her2-ECD

human VEGF109 [6] = molecular target: T1, human VEGF109; assay: BIAcore SPR, steady state analysis
[7] = molecular target: T4, HER2 extracellular domain; assay: competition ELISA of phage-displayed Fab
[8] = molecular target: T3, human VEGF (form not stated); assay: competitive phage ELISA; remark: listed apart in the source
[9] = molecular target: T4, HER2 extracellular domain; assay: competitive phage ELISA
[10] = molecular target: T4, HER2 extracellular domain; assay: Her2 in solution (varied) against DR5 coat
hVEGF-C [11] = molecular target: T5, hVEGF-C (human, UniProt P49767 103-227); assay: ELISA
T5 construct: also called vascular endothelial growth factor C
T5 sequence (looked up): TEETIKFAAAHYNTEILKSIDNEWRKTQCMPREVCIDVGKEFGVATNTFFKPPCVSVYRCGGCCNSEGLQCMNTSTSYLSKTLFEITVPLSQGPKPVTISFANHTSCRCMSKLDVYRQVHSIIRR

hVEGF-D [12] = molecular target: T6, hVEGF-D (human, UniProt O43915 93-201); assay: ELISA
T6 construct: also called vascular endothelial growth factor D
T6 sequence (looked up): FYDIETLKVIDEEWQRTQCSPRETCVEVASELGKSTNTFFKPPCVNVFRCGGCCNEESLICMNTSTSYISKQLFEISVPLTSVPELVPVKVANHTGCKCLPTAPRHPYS

human death receptor 5 = molecular target: T7, human death receptor 5 (human, UniProt O14763 56-210); assay: ELISA: antigen immobilized, hIgG 15 µg/mL, OD450; bars assigned by their left-to-right order
T7 construct: also called hDR5; DR5

[13] = molecular target: T8, epidermal growth factor receptor extracellular domain (human, UniProt P00533 25-645); assay: as above
T8 construct: extracellular domain; also called hEGFR

bovine serum albumin = molecular target: T9, bovine serum albumin (bovine, UniProt P02769 25-607); assay: as above
T9 construct: also called BSA

human VEGF109 [14] = molecular target: T1, human VEGF109; assay: SPR, captured IgG, antigen in solution, 30°C
hVEGF-C [15] = molecular target: T5, hVEGF-C; assay: ELISA: antigen immobilized, hIgG 15 µg/mL, OD450; bars assigned by their left-to-right order
hVEGF-D [16] = molecular target: T6, hVEGF-D; assay: as above
HER3 ECD = molecular target: T10, HER3 ECD; assay: as above
T10 construct: also called ErbB3/HER3 extracellular domain

[17] = molecular target: T11, VEGF109 (receptor-binding domain of human VEGF, residues 8-109) (human, UniProt P15692 214-315); assay: calculated from ΔCp
T11 construct: also called hVEGF109
T11 sequence (looked up): T1 sequence (looked up)

[18] = molecular target: T11, VEGF109 (receptor-binding domain of …); assay: calculated from the SPR KD
[19] = molecular target: T11, VEGF109 (receptor-binding domain of …); assay: isothermal titration calorimetry
[20] = molecular target: T11, VEGF109 (receptor-binding domain of …); assay: calculated from ΔStot, ΔSdesolv and ΔSrt

B1: 3_7 Fab (Fab, V domains shown)
VH: not shown
VL: DIQMTQSPSSLSASVGDRVTITCRASQYIWRYVAWYQQKPGKAPKLLIYWGSSLYSGVPSRFSGSGSGTDFTLTISSLQPEDFATYYCQQGLWYSPPTFGQGTKVEIK
Question: With B1 as the binder, how does the Kd (human VEGF109 [1]) read?
Answer: Its Kd is 0.003 µM.

Question: What about the koff (human VEGF109 [1]) of the same binder?
Answer: The koff was 0.0025 s⁻¹.

Question: And the kon (human VEGF109 [1])?
Answer: The kon was 800000 M⁻¹ s⁻¹.

Question: What about the Kd [2] of the same binder?
Answer: Its Kd is 0.078 µM.

Question: What about the koff [2] of the same binder?
Answer: The koff was 0.0056 s⁻¹.

Question: And the kon [2]?
Answer: Its kon is 72000 M⁻¹ s⁻¹.

B2: 3-7 hIgG (antibody, V domains shown)
VH: not shown
VL: B1 VL
notes: also called 3-7 anti-hVEGF
Question: Which results are given for B2?
Answer: Kd (human VEGF109 [1]): 0.007 µM; koff (human VEGF109 [1]): 0.0042 s⁻¹; kon (human VEGF109 [1]): 580000 M⁻¹ s⁻¹; Kd [2]: 0.03 µM; koff [2]: 0.015 s⁻¹; kon [2]: 500000 M⁻¹ s⁻¹

B3: 3-7 (phage) (scFv, V domains shown, not shown: large carriers; small tags and cut ends)
VH: not shown
VL: B1 VL
Question: B3 was tested. Which IC50 [3] did it give?
Answer: The IC50 was 0.016 µM.

B4: H7 (scFv, V domains shown)
VH: not shown
VL: B1 VL with Y28N, I29V, R31D, Y32W, W50P, G51A, L92W, W93Y, Y94I, S95A
notes: not shown: scFv linker carrying the gD tag and the phage coat fusion
Question: How did the IC50 [4] turn out when B4 was run?
Answer: The IC50 was 0.06 µM.

B5: H4_N (bispecific antibody, V domains shown)
VH: not shown
VL: DIQMTQSPSSLSASVGDRVTITCRASQNIRSGSVAWYQQKPGKAPKLLIYWASYLYSGVPSRFSGSGSGTDFTLTISSLQPEDFATYYCQQHYTTPPTFGQGTKVEIK
notes: also called H4_N hIgG; H4_N Fab
Question: Which Kd [5] does the source give for B5 here?
Answer: The Kd was 0.00987 µM and 0.006 µM.

Question: And the koff [5]?
Answer: Its koff is 0.0013 s⁻¹.

Question: And the kon [5]?
Answer: Its kon is 140000 M⁻¹ s⁻¹ and 230000 M⁻¹ s⁻¹.

Question: What about the Kd (human VEGF109 [6]) of the same binder?
Answer: Its Kd is 0.55 µM.

B6: 35.74 (Fab, V domains shown)
VH: not shown
VL: DIQMTQSPSSLSASVGDRVTITCRAIQDIPKTITGYVAWYQQKPGKAPKLLIYWGSFLYSGVPSRFSGSGSGTDFTLTISSLQPEDFATYYCQQHFNSPPKFGQGTKVEIK
Question: For B6, which IC50 [7] is on record?
Answer: The IC50 was 0.0007 µM.

B7: 20.49 (Fab, V domains shown)
VH: not shown
VL: DIQMTQSPSSLSASVGDRVTITCRASVDLPKSVSGYVAWYQQKPGKAPKLLIYWGSFLYSGVPSRFSGSGSGTDFTLTISSLQPEDFATYYCQQHFTSPPTFGQGTKVEIKR
Question: For B7, which IC50 [7] is on record?
Answer: The IC50 was 0.0026 µM.

B8: 20.80 (Fab, V domains shown)
VH: not shown
VL: B7 VL with V27E, L29I, V33I, T97S
Question: With B8 as the binder, how does the IC50 [7] read?
Answer: The IC50 was 0.0022 µM.

B9: 35.45 (Fab, V domains shown)
VH: not shown
VL: B7 VL with V27E, L29I, S32T, T97S
Question: With B9 as the binder, how does the IC50 [7] read?
Answer: Its IC50 is 0.0011 µM.

B10: 35.95 (Fab, V domains shown)
VH: not shown
VL: B7 VL with S26I, V27E, D28N, F96Y
Question: For B10, which IC50 [7] is on record?
Answer: Its IC50 is 0.0043 µM.

B11: 3-4 (phage) (scFv, V domains shown, not shown: large carriers; small tags and cut ends)
VH: not shown
VL: B1 VL with Y28E, I29V, W30Y, R31S, W50P, G51A, L92F, Y94I, S95G
notes: also called c3-4
Question: With B11 as the binder, how does the IC50 [3] read?
Answer: The IC50 was 0.032 µM.

B12: H4 (phage) (scFv, V domains shown)
VH: not shown
VL: B5 VL with S31T, A52G
Question: What does the source list for B12?
Answer: IC50 [8]: 0.115 µM; IC50 [9]: 0.00054 µM

B13: D1 hIgG (bispecific antibody, V domains shown)
VH: not shown
VL: DIQMTQSPSSLSASVGDRVTITCRASQNVSKHVAWYQQKPGKAPKLLIYWGSYLYSGVPSRFSGSGSGTDFTLTISSLQPEDFATYYCQQSYSGPPTFGQGTKVEIK
notes: also called D1 (anti-hDR5/Her2)
Question: Which “IC50 (read off the curve)” value [10] does the source give for B13 here?
Answer: The value was about 0.05 µM.

B14: 3-1 (Table 2) (Fab, V domains shown)
VH: not shown
VL: DIQMTQSPSSLSASVGDRVTITCRASQNVWDWVAWYQQKPGKAPKLLIYPASSLYSGVPSRFSGSGSGTDFTLTISSLQPEDFATYYCQQGWYIAPPTFGQGTKVEIKR
notes: also called 3-1 Fab
Question: Does B14 bind [5]?
Answer: Result: no binding

Question: And the Kd [2]?
Answer: Its Kd is 0.105 µM.

Question: What about the koff [2] of the same binder?
Answer: Its koff is 0.0036 s⁻¹.

B15: 3-1 hIgG (antibody, V domains shown)
VH: not shown
VL: B14 VL
notes: also called 3-1 IgG; not shown: rest of the human IgG heavy-chain constant region
Question: What does the source list for B15?
Answer: binding result (hVEGF-C [11]): no binding; binding result (hVEGF-D [12]): no binding; binding result [5]: no binding; Kd [2]: 0.044 µM; koff [2]: 0.016 s⁻¹; binding result (human death receptor 5): no binding (tested: 15 µg/mL); binding result [13]: no binding (tested: 15 µg/mL); binding result (bovine serum albumin): no binding (tested: 15 µg/mL)

B16: bH1-81 IgG (bispecific antibody, V domains shown)
VH: not shown
VL: B7 VL with V27Q, D28N, L29I, P30A, S32T, V33I, F96Y, T97S
notes: also called bH1-81 antibody; not shown: rest of the human IgG heavy-chain constant region
Question: How did the Kd (human VEGF109 [14]) turn out when B16 was run?
Answer: Its Kd is 0.041 µM.

Question: Does B16 bind (human death receptor 5)?
Answer: Result: no binding (tested: 15 µg/mL)

Question: Does B16 bind (hVEGF-C [15])?
Answer: Result: no binding (tested: 15 µg/mL)

Question: Does B16 bind (hVEGF-D [16])?
Answer: Result: no binding (tested: 15 µg/mL)

Question: Does B16 bind [13]?
Answer: Result: no binding (tested: 15 µg/mL)

Question: Does B16 bind (bovine serum albumin)?
Answer: Result: no binding (tested: 15 µg/mL)

Question: Does B16 bind (HER3 ECD)?
Answer: Result: no binding (tested: 15 µg/mL)

B17: bH1-44 Fab (Fab, V domains shown)
VH: EVQLVESGGGLVQPGGSLRLSCAASGFNISGTYIHWVRQAPGKGLEWVARIYPSEGYTRYADSVKGRFTISADTSKNTAYLQMNSLRAEDTAVYYCSRWVGVGFYAMDYWGQGTLVTVSS
VL: B7 VL with V27Q, D28N, L29I, P30A, S32T, V33I, F96Y, T97S
notes: also called bH-44
Question: How did the ΔSdesolv [17] turn out when B17 was run?
Answer: The ΔSdesolv was 0.000402 kJ/mol.

Question: And the ΔG [18]?
Answer: Its ΔG is -49.4 kJ/mol.

Question: What about the ΔH [19] of the same binder?
Answer: The ΔH was -29.7 kJ/mol.

Question: And the ΔSconf [20]?
Answer: The ΔSconf was -0.000301 kJ/mol.
